# Values of other authors in patent US9040062B2, “Preparation for treatment of spinal cord injury” (SUMITOMO DAINIPPON PHARMA CO., LTD., priority 2010, dated 2015).
# B1: semaphorin 3A: endogenous protein that retracts the nerve growth cone and suppresses axonal growth (protein, UniProt Q14563 21-771, looked up)
# Semaphorin-3A: NYQNGKNNVPRLKLSYKEMLESNNVITFNGLANSSSYHTFLLDEERSRLYVGAKDHIFSFDLVNIKDFQKIVWPVSYTRRDECKWAGKDILKECANFIKVLKAYNQTHLYACGTGAFHPICTYIEIGHHPEDNIFKLENSHFENGRGKSPYDPKLLTASLLIDGELYSGTAADFMGRDFAIFRTLGHHHPIRTEQHDSRWLNDPKFISAHLISESDNPEDDKVYFFFRENAIDGEHSGKATHARIGQICKNDFGGHRSLVNKWTTFLKARLICSVPGPNGIDTHFDELQDVFLMNFKDPKNPVVYGVFTTSSNIFKGSAVCMYSMSDVRRVFLGPYAHRDGPNYQWVPYQGRVPYPRPGTCPSKTFGGFDSTKDLPDDVITFARSHPAMYNPVFPMNNRPIVIKTDVNYQFTQIVVDRVDAEDGQYDVMFIGTDVGTVLKVVSIPKETWYDLEEVLLEEMTVFREPTAISAMELSTKQQQLYIGSTAGVAQLPLHRCDIYGKACAECCLARDPYCAWDGSACSRYFPTAKRRTRRQDIRNGDPLTHCSDLHHDNHHGHSPEERIIYGVENSSTFLECSPKSQRALVYWQFQRRNEERKEEIRVDDHIIRTDQGLLLRSLQQKDSGNYLCHAVEHGFIQTLLKVTLEVIDTEHLEELLHKDDDGDGSKTKEMSNSMTPSQKVWYRDFMQLINHPNLNTMDEFCEQVWKRDRKQRRQRPGHTPGNSNKWKHLQENKKGRNRRTHEFERAPRSV
# Tested on: cultural neuron
# Conditions: short time
molecule,measurement,value
B1,concentration inducing growth cone retraction,10 pM
